The record followed here is US20190241662A1.

Like-named read-outs stand apart in the source and are kept apart here.

Test [1] has as its target human Tim3 on HEK293F cells (human) (UniProt Q8TDQ0). Nature of the test: flow cytometry, transfected HEK293F cells, 100 nM antibody [Cont.].
The target of test [2] is human B7H3 on HEK293F cells (human) (UniProt Q5ZPR3). Described as above.
The target in test [3] is full-length human CTLA4 expressed on cells (human) (UniProt P16410). Nature of the test: flow cytometry, activated human CD4+ T cells, APC-labelled antibody; lower right quadrant 0%. A general note: Flow cytometry measures light scatter and fluorescence of single cells or particles in a stream.
Test [4] shares this target. Nature of the test: flow cytometry, transfected HEK293F cells, 100 nM antibody.
The target of test [5] is human Tim3 on HEK293F cells (human) (UniProt Q8TDQ0). Described as above.
Test [6] has as its target human LAG3 on HEK293F cells (human) (UniProt P18627). Described as above.
Test [7] addresses human PD-L1 on HEK293F cells (human) (UniProt Q9NZQ7). The test is described as above.
In test [8] the target is CTLA4 on activated mouse T cells (mouse) (UniProt P09793). Nature of the test: flow cytometry, activated mouse CD4+ T cells, APC-labelled antibody; lower right quadrant 0.043%.
For test [9], the target named is CTLA4 on activated monkey T cells. Nature of the test: flow cytometry, activated monkey CD4+ T cells, APC-labelled antibody; lower right quadrant […].
Test [10] addresses full-length mouse CTLA4 expressed on HEK293F cells (mouse) (UniProt P09793). Description: flow cytometry, transfected HEK293F cells, antibody concentration not printed [Cont.].
In test [11] the target is full-length human CTLA4 expressed on cells (human) (UniProt P16410). Nature of the test: flow cytometry, transfected HEK293F cells, 100 nM antibody. This is another data set of the same source.
For test [12], the target named is human PD1 on HEK293F cells (human) (UniProt Q15116). The description is as above.
In test [13] the target is human LAG3 on HEK293F cells (human) (UniProt P18627). The description is as above. The source holds these as a separate data set.
Sequence of human LAG3 on HEK293F cells (human) (P18627 23-525): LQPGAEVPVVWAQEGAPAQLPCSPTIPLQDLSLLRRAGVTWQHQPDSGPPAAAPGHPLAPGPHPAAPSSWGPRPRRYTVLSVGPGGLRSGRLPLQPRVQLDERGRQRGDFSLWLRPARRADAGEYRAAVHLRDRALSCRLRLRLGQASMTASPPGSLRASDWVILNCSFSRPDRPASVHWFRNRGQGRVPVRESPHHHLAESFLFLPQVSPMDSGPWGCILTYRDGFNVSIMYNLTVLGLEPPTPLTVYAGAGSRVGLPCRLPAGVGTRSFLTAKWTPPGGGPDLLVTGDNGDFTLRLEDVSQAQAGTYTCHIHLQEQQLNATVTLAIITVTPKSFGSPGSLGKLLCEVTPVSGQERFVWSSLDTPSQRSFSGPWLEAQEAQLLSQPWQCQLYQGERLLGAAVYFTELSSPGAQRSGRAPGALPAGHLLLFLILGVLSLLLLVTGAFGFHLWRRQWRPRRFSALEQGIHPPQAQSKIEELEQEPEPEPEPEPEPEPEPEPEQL

Sequence of full-length human CTLA4 expressed on cells (human) (P16410 36-223): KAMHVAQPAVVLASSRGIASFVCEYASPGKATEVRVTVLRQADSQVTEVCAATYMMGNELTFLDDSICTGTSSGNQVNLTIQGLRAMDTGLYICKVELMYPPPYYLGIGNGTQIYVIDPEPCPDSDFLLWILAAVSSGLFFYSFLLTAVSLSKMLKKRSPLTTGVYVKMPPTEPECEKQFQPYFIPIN
Sequence of human Tim3 on HEK293F cells (human) (Q8TDQ0 22-301): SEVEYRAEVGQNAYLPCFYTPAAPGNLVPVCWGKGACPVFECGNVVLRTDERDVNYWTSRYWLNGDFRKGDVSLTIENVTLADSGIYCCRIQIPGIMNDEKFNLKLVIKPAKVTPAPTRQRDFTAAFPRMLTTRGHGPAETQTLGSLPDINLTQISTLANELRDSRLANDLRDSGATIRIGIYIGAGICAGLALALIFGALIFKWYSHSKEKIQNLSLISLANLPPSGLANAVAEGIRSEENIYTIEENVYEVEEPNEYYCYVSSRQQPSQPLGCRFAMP
Sequence of human PD-L1 on HEK293F cells (human) (Q9NZQ7 19-290): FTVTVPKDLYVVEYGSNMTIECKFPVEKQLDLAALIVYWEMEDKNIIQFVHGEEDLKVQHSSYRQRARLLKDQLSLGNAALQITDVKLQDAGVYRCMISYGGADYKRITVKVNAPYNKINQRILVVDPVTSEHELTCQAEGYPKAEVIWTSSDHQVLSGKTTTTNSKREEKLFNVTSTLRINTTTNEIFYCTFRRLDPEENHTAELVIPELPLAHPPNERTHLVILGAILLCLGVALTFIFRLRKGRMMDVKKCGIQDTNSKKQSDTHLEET
Sequence of full-length mouse CTLA4 expressed on HEK293F cells (mouse) (P09793 36-223): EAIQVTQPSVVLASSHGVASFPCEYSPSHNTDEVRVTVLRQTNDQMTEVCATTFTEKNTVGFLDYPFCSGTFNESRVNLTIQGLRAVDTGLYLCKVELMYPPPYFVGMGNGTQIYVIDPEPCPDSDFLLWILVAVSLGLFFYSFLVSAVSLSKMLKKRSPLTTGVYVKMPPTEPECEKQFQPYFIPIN
Sequence of human B7H3 on HEK293F cells (human) (Q5ZPR3 29-534): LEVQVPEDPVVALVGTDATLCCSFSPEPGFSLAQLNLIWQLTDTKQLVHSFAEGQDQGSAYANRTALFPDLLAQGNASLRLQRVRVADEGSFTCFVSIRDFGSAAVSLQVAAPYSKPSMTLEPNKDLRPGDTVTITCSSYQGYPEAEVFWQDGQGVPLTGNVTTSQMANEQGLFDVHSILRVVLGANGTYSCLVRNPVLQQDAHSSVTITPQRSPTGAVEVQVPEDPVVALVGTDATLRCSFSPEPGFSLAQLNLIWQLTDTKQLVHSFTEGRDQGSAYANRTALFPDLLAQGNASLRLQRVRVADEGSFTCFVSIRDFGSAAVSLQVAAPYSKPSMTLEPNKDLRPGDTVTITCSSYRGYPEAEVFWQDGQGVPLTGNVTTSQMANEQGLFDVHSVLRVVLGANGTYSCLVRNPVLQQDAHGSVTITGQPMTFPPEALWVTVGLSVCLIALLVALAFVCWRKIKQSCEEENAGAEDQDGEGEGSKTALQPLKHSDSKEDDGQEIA
Sequence of CTLA4 on activated mouse T cells (mouse) (P09793 36-223 limits assumed): as the sequence (P09793 36-223) above
Sequence of human PD1 on HEK293F cells (human) (Q15116 25-288): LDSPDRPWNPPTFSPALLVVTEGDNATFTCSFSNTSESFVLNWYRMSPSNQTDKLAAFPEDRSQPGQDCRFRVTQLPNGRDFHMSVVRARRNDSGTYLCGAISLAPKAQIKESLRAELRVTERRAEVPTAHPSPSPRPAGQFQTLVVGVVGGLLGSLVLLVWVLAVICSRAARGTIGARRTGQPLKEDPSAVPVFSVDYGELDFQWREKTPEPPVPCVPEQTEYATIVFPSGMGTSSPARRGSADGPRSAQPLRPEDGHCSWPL
Sequence of CTLA4 on activated monkey T cells (chain, as listed by the source limits assumed): as the sequence (P16410 36-223) above, with S14N, I18T, L106M counted along it

On to isotype control antibody (human IgG1), for which the % of cells in upper right quadrant (Q2) in test [1] came to 1.06%; in [2], 1.72%; in test [4] it was 0.45%; in test [5], 0.055%; in test [6], 0.17%; in [7] it was 0.27%. The % of cells in upper right quadrant (Q2) in test [10] turned out to be 0.23; in [11], 1.79%; in [12], 0.99%; in [13] it was 2.1%. Also, the % of cells in upper right quadrant (APC-positive) in test [3] came out at 0.034%; in test [8], 1.98%; in test [9], 6.27%. Further, the Mean in [4] turned out to be 48000; in test [5], 3200; in test [6], 3550; in test [7], 36300; in [10], 3700.
